Experiments:
[1] = biological target: gp41 17–163 (construct H; MPER truncated by 9 C-terminal residues) (HIV-1 (HXB2 isolate)); experiment: AUC; sedimentation velocity, 50,000 rpm, 20°C; 20 mM sodium phosphate, pH 7, 150 mM NaCl, 10 mM DPC (excess of micelles); 10–20 μM protein
[2] = biological target: gp41 17–194 (Env 528 to 705; FPPR to TM, IL replaced by the L6 spacer) (HIV-1 (HXB2 isolate)); experiment: AUC; sedimentation velocity, 20°C; 20 mM sodium phosphate, pH 7, without NaCl, DPC; 1–2 μM protein left soluble

| Substance | stoichiometry N [1] | stoichiometry N [2] |
| --- | --- | --- |
| gp41 17–163 (construct H; MPER truncated by 9 C-terminal residues) (domain or fragment) | 3 | – |
| gp41 17–194 (Env 528 to 705; FPPR to TM, IL replaced by the L6 spacer) (domain or fragment) | – | 3 |

— PMC4981318
